Target: T1, purified recombinant TRIP6 (UniProt Q15654 1-476)
T1 construct: TRIP6; source: purified recombinant protein
T1 sequence (looked up): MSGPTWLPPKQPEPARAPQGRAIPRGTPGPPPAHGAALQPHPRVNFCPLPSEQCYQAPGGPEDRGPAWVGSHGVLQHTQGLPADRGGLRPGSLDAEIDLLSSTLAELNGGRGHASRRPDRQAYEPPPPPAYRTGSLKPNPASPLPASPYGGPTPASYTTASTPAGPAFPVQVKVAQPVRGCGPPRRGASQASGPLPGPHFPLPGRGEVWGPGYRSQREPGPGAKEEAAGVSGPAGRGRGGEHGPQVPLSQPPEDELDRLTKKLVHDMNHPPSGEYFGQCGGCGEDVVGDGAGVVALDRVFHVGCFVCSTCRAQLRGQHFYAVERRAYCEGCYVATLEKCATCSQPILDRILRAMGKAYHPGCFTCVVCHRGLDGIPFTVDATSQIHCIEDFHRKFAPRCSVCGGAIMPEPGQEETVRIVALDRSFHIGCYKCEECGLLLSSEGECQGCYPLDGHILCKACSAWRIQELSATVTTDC
Test: pull-down; purified recombinant TRIP6 incubated with GST, GST-TRAF6 or GST-CT, 4 °C, 3 h; anti-TRIP6 immunoblot
Conditions: both partners purified

binding result: binds
B1: GST-CT mutant containing residues 239–530 of TRAF6 (domain or fragment, UniProt P70196 239-530, looked up)
chain: PIPCTFSVFGCHEKMQRNHLARHLQENTQLHMRLLAQAVHNVNLALRPCDAASPSRGCRPEDPNYEETIKQLESRLVRQDHQIRELTAKMETQSMYVGELKRTIRTLEDKVAEMEAQQCNGIYIWKIGNFGMHLKSQEEERPVVIHSPGFYTGRPGYKLCMRLHLQLPTAQRCANYISLFVHTMQGEYDSHLPWPFQGTIRLTILDQSEALIRQNHEEVMDAKPELLAFQRPTIPRNPKGFGYVTFMHLEALRQGTFIKDDTLLVRCEVSTRFDMGGLRKEGFQPRSTDAGV
notes: TRAF6 carboxyl-terminal domain, residues 239-530; also called TRAF6-CT domain; carboxyl-terminal domain; source: purified recombinant GST-tagged protein (pGEX-6P3)

— paper PMC4850058, “TRIP6 antagonizes the recruitment of A20 and CYLD to TRAF6 to promote the LPA2 receptor-mediated TRAF6 activation” (Cell Discovery, 2016)
